Assays:
Assay in all cases: IEDB peptide-MHC binding, purified MHC/competitive/radioactivity; filed as Kd, often an IC50 or EC50 that approximates it; ≥ and ≤ were set here for values at or beyond the usual limits of such assays
HLA-A*02:06 = target: HLA-A*02:06
HLA-A*02:02 = target: HLA-A*02:02
HLA-A*02:03 = target: HLA-A*02:03
HLA-A*11:01 = target: HLA-A*11:01
HLA-A*31:01 = target: HLA-A*31:01
HLA-A*03:01 = target: HLA-A*03:01
HLA-A*33:01 = target: HLA-A*33:01
HLA-A*68:01 = target: HLA-A*68:01
[1] = source organism: Vaccinia virus WR
[2] = source organism: SARS coronavirus Tor2
[3] = source organism: Vaccinia virus Copenhagen
[4] = source organism: Triticum aestivum

Sequence | Kd (HLA-A*02:06; [1]) | Kd (HLA-A*02:02; [1]) | Kd (HLA-A*02:03; [1]) | also measured
AMLKSKNINI | 0.2 µM | 1.65 µM | 0.223 µM | –
ATICLKNEGV | 0.0425 µM | 0.436 µM | 0.0709 µM | –
AVIIMAINV | 0.0652 µM | 9.07 µM | 2.76 µM | –
DAEFVMCLEA | 12.7 µM | 2.41 µM | 7.31 µM | –
DIKYDNKLL | ≥ 77.1 µM | 1.42 µM | ≥ 49.8 µM | –
DLDKVYEIL | ≥ 53.7 µM | 19.6 µM | ≥ 26.3 µM | –
DVCKKNLDL | 16.3 µM | ≥ 25.4 µM | 8.02 µM | –
EIKAEMQLKI | 14.3 µM | 16.9 µM | 4.76 µM | –
ELKDLLNVT | ≥ 38.4 µM | 1.54 µM | 0.209 µM | –
ELTNKKYRCM | ≥ 69.8 µM | ≥ 70 µM | ≥ 70.4 µM | –
ETMYLTMKA | 12.7 µM | 7.85 µM | 0.942 µM | –
FAFIDFSKST | 1.41 µM | 11.8 µM | 2.41 µM | –
FASADNHPKM | ≥ 69.8 µM | ≥ 70 µM | ≥ 47.4 µM | –
FIISTLNKI | 0.00584 µM | 0.00165 µM | 0.000418 µM | –
FIQWTGGNI | 5.91 µM | 0.683 µM | 0.0547 µM | –
FISPASISSV | 0.00202 µM | 0.00301 µM | 0.000111 µM | –
FISYNRHNDT | 11.3 µM | 6.84 µM | 4.93 µM | –
FLLFLVLIML | – | – | – | Kd (HLA-A*02:06; [2]): 2.92 µM; Kd (HLA-A*02:02; [2]): 1.57 µM; Kd (HLA-A*02:03; [2]): 1.38 µM
FTEGKINPLL | 0.0858 µM | 0.15 µM | 0.595 µM | –
FVDTMSIYIA | 1.1 µM | 0.154 µM | 2.39 µM | –
GTSVIRSNI | 1.61 µM | 0.386 µM | 0.0448 µM | –

Sequence | Kd (HLA-A*02:06; [1]) | Kd (HLA-A*02:02; [1]) | Kd (HLA-A*02:03; [1]) | also measured
HLMSDNPKA | 0.523 µM | 0.0569 µM | 0.279 µM | –
IIAVFDSKL | 0.0986 µM | 0.044 µM | 0.107 µM | –
IINSVSIIL | ≥ 25.9 µM | 0.705 µM | 2.9 µM | –
IISSKQYPA | 1.16 µM | 0.164 µM | 0.612 µM | –
ILDNLRCHSA | 0.297 µM | 0.972 µM | 0.0693 µM | –
ILSCIFAFI | – | – | – | Kd (HLA-A*02:06; [3]): 0.00884 µM; Kd (HLA-A*02:02; [3]): 0.00079 µM; Kd (HLA-A*02:03; [3]): 0.00308 µM
IVNTTYDFLA | 0.956 µM | 1.25 µM | 8.27 µM | –
KASTISWMM | 0.797 µM | 0.429 µM | 0.556 µM | –
KTIISEEYL | 0.15 µM | 0.916 µM | 1.22 µM | –
LANERYRSA | ≥ 77.1 µM | ≥ 31.3 µM | 0.554 µM | –
LIANIFTPLV | – | – | – | Kd (HLA-A*02:06; [2]): 0.0157 µM; Kd (HLA-A*02:02; [2]): 0.000398 µM; Kd (HLA-A*02:03; [2]): 0.0134 µM
LITNTKSDNI | 18.7 µM | 2.25 µM | 3.08 µM | –
LLLENKSLTI | 1.32 µM | 0.982 µM | 0.985 µM | –
LLLEWLAEVV | – | – | – | Kd (HLA-A*02:06; [2]): 0.000525 µM; Kd (HLA-A*02:02; [2]): 0.00031 µM; Kd (HLA-A*02:03; [2]): 0.000813 µM
LMWFIISIV | – | – | – | Kd (HLA-A*02:06; [2]): 0.0268 µM; Kd (HLA-A*02:02; [2]): 0.0601 µM; Kd (HLA-A*02:03; [2]): 0.00718 µM
MICCDSRIVV | 0.0519 µM | 0.665 µM | 0.392 µM | –
MIYDLNAVTT | 0.429 µM | 0.897 µM | 0.477 µM | –
NTTYDFLARK | – | – | – | Kd (HLA-A*11:01; [1]): 0.0318 µM; Kd (HLA-A*31:01; [1]): 5.55 µM; Kd (HLA-A*03:01; [1]): 0.691 µM; Kd (HLA-A*33:01; [1]): 4.51 µM; Kd (HLA-A*68:01; [1]): 0.00958 µM
PSTDVNKQNK | – | – | – | Kd (HLA-A*11:01; [1]): 3.61 µM; Kd (HLA-A*31:01; [1]): 4.78 µM; Kd (HLA-A*03:01; [1]): 1.26 µM; Kd (HLA-A*33:01; [1]): ≥ 70 µM; Kd (HLA-A*68:01; [1]): ≥ 26.8 µM
QLEQPYVFIK | – | – | – | Kd (HLA-A*11:01; [2]): 2.99 µM; Kd (HLA-A*31:01; [2]): 11.3 µM; Kd (HLA-A*03:01; [2]): 6.68 µM; Kd (HLA-A*33:01; [2]): ≥ 70 µM; Kd (HLA-A*68:01; [2]): 17.2 µM
QQQQQQQQK | – | – | – | Kd (HLA-A*11:01; [4]): 0.845 µM; Kd (HLA-A*31:01; [4]): 5.38 µM; Kd (HLA-A*03:01; [4]): 2.11 µM; Kd (HLA-A*33:01; [4]): ≥ 56.4 µM; Kd (HLA-A*68:01; [4]): ≥ 31.3 µM

— the Immune Epitope Database (IEDB)
